This experiment has as its system IFN-γ^+ ILC1s. The experiment in a line: In vitro stimulation: IFN-γ production by ILC1s. The experiment is classed as cell-based, mouse. The settings on record: neutralizing antibody 10 μg/ml with LSCs, or IL-7 100 ng/ml; 12 h, IL-12 plus IL-15. An excerpt:
ILC1s from human peripheral blood were identified by a surface stain including a live/dead cell viability cell staining kit (Invitrogen) and the following monoclonal antibodies: lineage (FITC-conjugated anti-CD3, anti-CD4, anti-CD8, anti-CD14, anti-CD15, anti-CD16, anti-CD19, anti-CD20, anti-CD33, anti-CD34, anti-CD203c, anti-FceRI), CD56 (FITC, AF700 or BV421 conjugated anti-CD56), CD127 (APC-conjugated anti-CD127), CRTH2 (PE-Cy7-conjugated anti-CRTH2), and c-Kit (PE-conjugated anti-c-Kit). ILC from mice were identified by a surface stain and the following monoclonal antibodies: lineage (PE-Cy7-conjugated anti-CD3 and anti-CD19), NK1.1 (BV510-conjugated anti-NK1.1), NKp46 (BV421, FITC or AF647-conjugated anti-NKp46), CD49b (BUV395 or PE-conjugated anti-CD49b), and CD49a (BV711-conjugated anti-CD49a). Human LSCs were identified by lineage (FITC-conjugate anti-CD2, anti-CD3, anti-CD4, anti-CD8, anti-CD14, anti-CD19, anti-CD20, anti-Mac-1, anti-CD56, and anti-CD235a), CD45 (BV510-conjugated anti-CD45), CD34 (BV510-conjugate anti-CD34), and CD38 (BV605 conjugated anti-CD38). Mouse LSCs were identified by lineage (PE-Cy7 conjugated anti-CD3, anti-CD19, anti-B220, anti-Ly6G/C, anti-Mac-1, anti-CD11b, and anti-Ter119), Sca-1 (PE-CF594 or BV510-conjugate anti-Sca-1), and c-Kit (BV711-conjugated anti-c-Kit). […]

B1: IL-7: recombinant mouse IL-7 (100 ng/ml) (protein)
chain: ECHIKDKEGKAYESVLMISIDELDKMTGTDSNCPNNEPNFFRKHVCDDTKEAAFLNRAARKLKQFLKMNISEEFNVHLLTVSQGTQTLVNCTSKEEKNVKEQKKNDACFLKRLLREIKTCWNKILKGSI
On to B1, for which the “effect on production of IFN-γ in normal ILC1s” value is recorded as “significantly increased”.

These data come from patent US20240082398A1, “METHODS OF PREPARING AND EXPANDING TYPE I INNATE LYMPHOID CELLS AND THERAPEUTIC USES THEREOF” (City of Hope, priority 2021, published 2024).
